Test results: the domain aggregation screens of Martell et al. (2025)

Assay: soluble fraction after stress (log2 fold change); higher = more stays soluble; pooled small domains, quantitative proteomics
Conditions: stress: pH 4
Procedure, shortened: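 After pH 4 stress, pooled custom libraries of small protein domains were quantified with high-throughput quantitative proteomics. Aggregation propensity is taken from the fold change in each domain's soluble amount following the acid stress. The scale is log2, where higher values mean more stayed soluble.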

Going from “HMTKSEWLRESREHLGLSQTDLRNLLNTALNRSYDKSRISRWENSKENIPAEVVKQIESLIATR” to “HMTKTRTEILEYLKQNWSVTVSASDIKKHLEEKEIKANTTTIYRYLDKLLAEHVIIKYADAGSERAVYQYS”, the “soluble fraction (log2)” value falls from 0.406 to -0.687.

“HMTKVIEFLVSDEEHGVRADKAFVSHNQKLSRSYFKKLILNGNLYINNKVNLDPSYKLIKGSTVRIILPE” and “HMTKVKIDRLFSIVQMLVNRKSVTAKELADYFNVSVRTIYRDIEILSANGIPIYATQGKGGGISILEN” are within 0.2 log units of each other in “soluble fraction (log2)” value: -0.698 for the first, -0.663 for the second.

Going from “HMTKYEGLSLDLIIDGVVITHNLKLAKLDMNWLLDRLKENGWDNPKDIFYAYIDTAGNFRFQPKLKASRTR” to “HMTKYREVLRMSAGGFSQRVIASTLSISRNTVASTLKRAREQNLDWEAVEQQRLSEKDIANLLFP”, the “soluble fraction (log2)” value rises from -0.906 to 0.293.

“HMTLAEEFNNLNGKVITRETLESLLVKAEKEQNSTISNRIRKVLQAYTADTFLIELQHTESA” and “HMTLALKQGSTGSTVKQVQQKLKNWGYYSGAVDGIFGSGTRKAVVLFQKRNKLTADGIVGSKTLEALGIYV” are within 0.2 log units of each other in “soluble fraction (log2)” value: -0.0269 for the first, 0.0782 for the second.

Compared with “HMTLDDSIALGRSLLDKGLMDFGTNLANLAEDKLRDFLSQQRYENLDDLFADIARGNRLPMFTAQQLLS”, “HMTLDVALSKEIKYMLKEEHYLPGDKLPSERKLAELFHVQRLTVRGALNLLLQDKTIISKPRSGYYVAPKR” is higher in “soluble fraction (log2)” value: -0.481 for the first, 0.225 for the second.

Going from “HMTLFDESGYTARELEIIREVANGLSNKEIADKLFLSEGTVKNYITGILAKENLSHRTALAVYYLTGRK” to “HMTLHEAMEKLFRQVGRPMTTKEIAEKLNENKWYQKADGSPLTPYQIYGRAKNYPALFHREGSIIYLKGS”, the “soluble fraction (log2)” value rises from -0.558 to 0.136.

Going from “HMTLKTISLTEAIKNTNEGNYSKLVLDGNELTITEQGKETPSLKTYTEPGTSLKEQGFDLSKVEFEAREQS” to “HMTLNQEELMGKTEAILFAGGEPVSLDRIAQVLGVRTPVIDSIVSALQEKYNTPTSGIQLMRL”, the “soluble fraction (log2)” value falls from -0.011 to -0.467.

First: HMTLPELTDRELQILQLLSVGNSSQKIAKQLNISTHTVSTHRKQLLRKLGAQNGADLIRRAQKLGIL
Second: HMTLQEFYARVGGDYNATLSRLPSEALVKKFILKYPGDPSFAQLKDALAAQDWELAFRASHTLKGVAQN
The “soluble fraction (log2)” value of the first is higher: 0.0897 for the first, -0.493 for the second.

Going from “HMTLSAPMPGTVLKIHVKEGQRVRKGQTLVVLEAMKMEHRIQAPKAGEVTNLHFSEGDRVDMGEILVEIG” to “HMTLSDDEFEIIKSLIIDTLKEEALTINALTKKINHKEAKTIQVIRFLLDNGLVAENNLMKLFVI”, the “soluble fraction (log2)” value falls from -0.905 to -1.54.

Compared with “HMTLTIEDQLRRLRARLGRGRAFLFSDVLVNPHDRTEIAVTLLALLELIKRREAQASQSYLFGPIEVAAA”, “HMTLTLEQAAAIKNSEGEQYGKIESERLAAMSVQIDKAIKSNGHDPNKKADLERKLDAIGIILNARAAG” is higher in “soluble fraction (log2)” value: -1.33 for the first, -0.0482 for the second.

Compared with “HMTLVKRSAMVTAWSEFAGGRVNSKLIALQNGKAGDWIELENPQSGRKLRGRVQSDGSVRLGS”, “HMTLYITDQMRKILDYVATNQEIDEKAVMDLLSIQRTRAYLIAKKMTDIGLLQVQGRGKTKTYRLAARS” is lower in “soluble fraction (log2)” value: 0.017 for the first, -0.285 for the second.

“HMTLYQIGDKVVHPMHGAGVIDSVVQRKVSGQVQEFYLLKLSVGNMVVMVPTDNTGEIGMRP” and “HMTMEQAEFLSRQFNLLSQRLNDPSIEWQDIADLRSEYTGEDEHRDTIRKGAKLFYEYLEAGWIKN” are within 0.2 log units of each other in “soluble fraction (log2)” value: -0.777 for the first, -0.867 for the second.

Compared with “HMTMKNPNGYGSVINLGKGRRRPWAARVTTGLVYDEKKDKLIQRYKYIGYADTRKEAHQILAEYNAGLPI”, “HMTMMTFGEKLQNARKGAGLSQEQLAEKLSVSRSAVAKWENDNGMPDIDNLKAIAQLLDVSIDYLLEN” is lower in “soluble fraction (log2)” value: 0.0906 for the first, -0.71 for the second.

Compared with “HMTMNLIEIGHVVGARRAELGLTQAQLAHLSGLSRQTVVGLEKGTLSDLGVNRVGQVMAVLGLDS”, “HMTMPDFGYMRVSYAEARRQLQAIGISVSTIEKVEDPSHTSATGDMVISQYPAAGSKIEGTVTLYVSVAS” is higher in “soluble fraction (log2)” value: -0.242 for the first, 0.332 for the second.

“HMTMSFSELLRGLRKSRGMSQAELATAVGLSQAQVSQIETGKLLPSPELIEKLAALYGIALGSA” and “HMTMTKELGQRIRAERTARKMTQEELAERADLHPTYIGQVERGEKSLTIASLEKIVEGLGISFSDLFEN” are within 0.2 log units of each other in “soluble fraction (log2)” value: 0.0703 for the first, -0.0395 for the second.

Going from “HMTMVKYRYLTDGELKEFEEEFKHFLIANGLHSEEWERLNNEDSNKAIEVVALFSNLILDKV” to “HMTMVLPDAARDKLKAIGLSIEHVEPSPVKDIFTVISREGVSYVSKDGDYIFTGSLFHVKGKDVVNTTEQA”, the “soluble fraction (log2)” value rises from -1.06 to -0.275.

Compared with “HMTNEAFITPSVLEWAIKRAGVSAESIHKKAEQWVSGKARPTFKQAVDIAKTLQIPFGYLWLKEPPKEQ”, “HMTNELVNVNKLLDVMEPSIPLTALEIMTRLGIKSKETLRNSYLNPAIKLGMINLTSPLKPTSKNQMYYK” is higher in “soluble fraction (log2)” value: -0.442 for the first, 0.111 for the second.

Going from “HMTNKSKQRRNEILRASQELFNKKGFHDTSINDIMRRVGAAKGVFYYYFETKDQILDTLIEQHIA” to “HMTNLTPKQQQIYQFIRASTQANGYPPTLREIGQQVGVRSPSTVKYHLDNLRTLGLLHWDGGKTRSITLP”, the “soluble fraction (log2)” value rises from -0.471 to 0.0274.

“HMTNNFIVTWRNYNEEVLEIDVNVKKGSMPKYNGKTPEREGYQFVGWDPEITEVTKDITYVAQFM” and “HMTNQKEITYSQFRQELDQGSIKSVSLQGSRIRGTYVDGGISFRTLAPNDADLIPSLMKHKVDIQVLPED” are within 0.2 log units of each other in “soluble fraction (log2)” value: -0.0457 for the first, 0.0675 for the second.

First: HMTNSTGWSKSGGTQVTIREGETIYNLSRRYGVPAKSIMEANGIADATAVRAGQRISIPTYSY
Second: HMTNVDELIGKEAVVVKEIRPYTTGEVKLDGKVWRAMSESKQVYKVDEIVTVLRIEGVTMII
The “soluble fraction (log2)” value of the first is higher: 0.22 for the first, -0.142 for the second.

Going from “HMTNVETLVRMRLRSIRTTLGYSLDEIAERSNLSASTVSRIETGKRALSIDVLVPLAAALQVSVDDLLRAE” to “HMTNYREILRLRSLGLNHSRIAESMGISRPTVIAALQRAQTQELNWQAAESLSDIDLAQRLNP”, the “soluble fraction (log2)” value rises from -1.31 to -0.2.

Compared with “HMTNYYTVTFKEGDTVLKEVSVHSGDGVPYAVAPKRDDIVGWSYNGNTYTTDLNTLKIKKEVTFTAVT”, “HMTPAIEKTAVIVFINGKKYYVHTVKSGETLYSIAKAYKVDEKVIKEHNPNVADGLRIDQTVKIPVPEQVK” is lower in “soluble fraction (log2)” value: 0.183 for the first, -0.0592 for the second.

Compared with “HMTPAPHESLTDREMEVLKLLAQGLSNQEIADKLFIGVKTVKYHITNIFSKLGVEDRTQAAIYAHKQGLA”, “HMTPDDSYIAGYAAGILKHQFLIDAPELIVRNGTITIPADKVSAGDRAKVVQILSGIPGVTRVEVG” is higher in “soluble fraction (log2)” value: -0.185 for the first, 0.368 for the second.

First: HMTPDVHRGDTITVSLRAGAIRVRVPAKALEEGAAGGEIRVVNLTGGREYRVRVTGPGTAEAIL
Second: HMTPEGAYTVSEIVKVINSFADEYKVPFTMHVSGYKYEEIAQQLGLPIGTVKSRIFFARKRLQELLN
The “soluble fraction (log2)” value of the first is higher: 0.0112 for the first, -1.03 for the second.

Compared with “HMTPEPVTMYITSLTEFRSEPNTEAGIIKLLDAYEEVEMIESRGEWSKISYGDQIGYILSEFLTAENRT”, “HMTPILTAQQVVAALQAAGYRNVHDLEFEHGRWEADAVNAAGQRVELHINPYTGAIERERLD” is higher in “soluble fraction (log2)” value: -1.78 for the first, -0.0319 for the second.

“HMTPKTSVPKPGQTVVVRKGDTIYALARIHDITPADLIAWNRLDNPSQIYPGQVIRLYPQGA” and “HMTPKVDLTVAEDGSASAVIAGLRVEIDAAGKVTAVAPADGTTDLSSVAPEAVKEAMDNALAAYTASKG” are within 0.2 log units of each other in “soluble fraction (log2)” value: 0.105 for the first, 0.167 for the second.

“HMTPLFNQGEVLKGFVLQTGTNNRVLLQIGTAKVLADAQTPLKAGEQLTLRVEATGPRTVLQILG” and “HMTPLILTAQEGGERLDAFVASQVEDLTRSAAQRLLEQGAVTSGGKPLKKNAKTTPGMVVEVLLPDPQ” are within 0.2 log units of each other in “soluble fraction (log2)” value: 0.101 for the first, -0.0145 for the second.

First: HMTPPPTNSREWMEWGISHGLDANLDRSGQVVFYTDDRVVADAAELSGADLERDNMGQFVIYTGAYDKG
Second: HMTPQEQWNNAYLLAKDYYDANGNLDIDEKYKTKDGFELGSWLTTQRNVYKRGKLSPEKTKKLEEIGISF
The “soluble fraction (log2)” value of the first is lower: -0.743 for the first, -0.107 for the second.

“HMTPQGALDYSRNAKYLRDQVTAINYLKQARLSLNTTDANYRQTLEQINQAIAKHNQALQQAGVQSQQLAT” and “HMTPTPQQNNILVGQTGTTLTRLAPMGKVRVGEVTAEAKTIDGYINPRQSVEVIGFENTVVIVRAV” are the same in “soluble fraction (log2)” value: 0.22 for the first, 0.22 for the second.

“HMTPVIINESGGDQDTRIEGLNDNNLLYVDASTDRVGVGVATPTQKLDVNGDVAISGGSLYLSQ” and “HMTPVKAPLPGVVTKINVSVGQQVKKGENVLVLEAMKMENNIAAEADGTVSGIAVKAGDSVLEGAVLLTI” are within 0.2 log units of each other in “soluble fraction (log2)” value: -0.0183 for the first, -0.0107 for the second.

“HMTPVTYELTVQSGAGQRIDKYLSEQLADLTRSYLQKLLKDGGVTVNGKTVKSNYKLSENDQIFLEVPDA” and “HMTPVYLNARQKQILAFLKREEPAKVGDIAHALKTISINTLKKDLLYLRQKNLIESHGVLKGTIYTVK” are within 0.2 log units of each other in “soluble fraction (log2)” value: 0.0962 for the first, 0.209 for the second.

Compared with “HMTQEFIVPKVTGYTVEDAMNLSGVKDVFEITVDSTEKSDQPAGIILFQDPKDGSSRKSDLVIHVVVSAGS”, “HMTQEQKQQISDQLRAYVEQKGSGNKAAASMNGVSSATISKVLAGKWETISEDMWRSIAAQTGH” is lower in “soluble fraction (log2)” value: 0.0901 for the first, -0.156 for the second.

Compared with “HMTQFSLTTEEINVLKKSYSEFTDSDKELFNKILEKYNKFKNESSNDIAFEAKILEKLQEIENFYE”, “HMTQMSVLFSELEAKDAATIADKLRERNIPYELSNNGSTILIPQEVLHDTRLSLASEGLPES” is higher in “soluble fraction (log2)” value: -1.45 for the first, 0.263 for the second.

Going from “HMTQPAEINRLVEQMGSSDYKSRQEAYERLHQMGPGILDLIYPYRNHADPEIQTRVRELILSYRW” to “HMTQQNRDELYRRMIDAGWDQLVRNGIRSLRVEQVAAAVGIAKGTFYHFFDSKDDFIYAMLMENRQ”, the “soluble fraction (log2)” value falls from -0.547 to -1.03.

With “HMTQSPLHWSHRPIDLSELLTYLDRDGAFVYASGHKAPFTEVVRGFEHLLNIRLGDPRDVKRSVLQR” the “soluble fraction (log2)” value was -0.282.
